A word on the Kd: it is a measure of binding affinity in units of concentration.

This passage reports Kd results from PMC4877600.

This series concerns human immunoglobulin E (IgE) (Homo sapiens). As to the kind of experiment: fluorescence bead-binding assay (thermal elution). Conditions: IgE on beads; selection buffer as printed: 44.5 mM Tris base, 44.5 mM bisboronic acid (sic), 50 mM NaCl, pH 8.5; 0-100 nM DNA, room temperature, 2 h; IgE beads 3x10^4 per ….

Sequence “GCCTGTTGTGAGCCTCCTGTCGAAACTAGACCGGGAGCAAAACGGCAGATTGGGGCAAGGCCGGTTGAGCGTTTATTCTTGTCTCCC [SIGE7]” yielded a Kd of 18 nM.
The value for “GCCTGTTGTGAGCCTCCTGTCGAAGATGTAGGCCATCCTGTGGGGGTACGGGGCGGGCTGTGGTTTGAGCGTTTATTCTTGTCTCCC [SIGE5]” was 10 nM.
